Experimental data as given in article PMC10497406, “PCNA recruits cohesin loader Scc2 to ensure sister chromatid cohesion” (Nature Structural & Molecular Biology, 2023).
Numbering of substitutions follows the chain as printed. Numbers in names are those of the source.

T1: GST–Scc2^C1100 (Scc2 amino acids 394–1493 fused to GST) (S. cerevisiae, UniProt Q04002 394-1493)
T1 construct: also called nearly full-length Scc2 fused to GST; not shown: GST, N-terminal, kept
T1 sequence (looked up): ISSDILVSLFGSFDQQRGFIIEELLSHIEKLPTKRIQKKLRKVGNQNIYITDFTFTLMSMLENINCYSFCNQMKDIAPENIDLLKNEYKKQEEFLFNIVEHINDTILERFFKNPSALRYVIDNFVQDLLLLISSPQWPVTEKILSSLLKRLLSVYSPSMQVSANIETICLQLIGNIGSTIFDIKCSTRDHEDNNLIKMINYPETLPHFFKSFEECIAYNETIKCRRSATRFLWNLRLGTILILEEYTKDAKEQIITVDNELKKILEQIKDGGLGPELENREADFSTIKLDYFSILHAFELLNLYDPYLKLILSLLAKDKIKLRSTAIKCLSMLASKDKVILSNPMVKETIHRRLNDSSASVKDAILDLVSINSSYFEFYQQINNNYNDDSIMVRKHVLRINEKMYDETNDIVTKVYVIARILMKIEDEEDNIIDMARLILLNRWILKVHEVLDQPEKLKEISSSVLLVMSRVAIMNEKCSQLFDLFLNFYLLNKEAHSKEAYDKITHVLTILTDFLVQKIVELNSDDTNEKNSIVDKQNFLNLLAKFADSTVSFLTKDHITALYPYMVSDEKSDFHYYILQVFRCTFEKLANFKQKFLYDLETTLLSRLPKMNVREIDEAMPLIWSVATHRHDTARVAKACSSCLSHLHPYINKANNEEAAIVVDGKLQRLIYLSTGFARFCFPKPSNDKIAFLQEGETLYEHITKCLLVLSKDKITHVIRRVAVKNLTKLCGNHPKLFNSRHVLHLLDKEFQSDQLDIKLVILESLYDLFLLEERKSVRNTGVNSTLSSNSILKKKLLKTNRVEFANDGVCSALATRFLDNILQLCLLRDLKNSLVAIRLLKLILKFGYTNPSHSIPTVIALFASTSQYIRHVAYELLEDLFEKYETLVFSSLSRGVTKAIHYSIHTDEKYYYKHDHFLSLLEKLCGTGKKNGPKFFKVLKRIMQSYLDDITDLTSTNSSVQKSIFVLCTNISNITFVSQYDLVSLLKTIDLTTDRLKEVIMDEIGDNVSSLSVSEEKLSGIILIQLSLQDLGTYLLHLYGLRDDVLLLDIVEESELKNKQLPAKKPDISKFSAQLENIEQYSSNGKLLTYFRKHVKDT

B1: N-terminally His-tagged yeast Pol30 (PCNA) (natural protein, S. cerevisiae, UniProt P15873 1-258, looked up)
chain: MLEAKFEEASLFKRIIDGFKDCVQLVNFQCKEDGIIAQAVDDSRVLLVSLEIGVEAFQEYRCDHPVTLGMDLTSLSKILRCGNNTDTLTLIADNTPDSIILLFEDTKKDRIAEYSLKLMDIDADFLKIEELQYDSTLSLPSSEFSKIVRDLSQLSDSINIMITKETIKFVADGDIGSGSVIIKPFVDMEHPETSIKLEMDQPVDLTFGAKYLLDIIKGSSLSDRVGIRLSSEAPALFQFDLKSGFLQFFLAPKFNDEE
notes: Pol30 (PCNA), S. cerevisiae; no measurement of the oligomer here; also called HisPol30; yeast PCNA; not shown: His, N-terminal, kept
B2: GST–Scc2PIP (Scc2 residues 1476–1493 fused to GST) (domain or fragment, S. cerevisiae, UniProt Q04002 1476-1493, looked up)
chain: YSSNGKLLTYFRKHVKDT
notes: also called PIP of Scc2 fused to GST; last 18 amino acids of Scc2; not shown: GST, N-terminal, kept
B3: GST–NIPBL^(C202 WT) (chicken NIPBL residues 2582–2783 fused to GST) (domain or fragment, UniProt F1NJ66 2582-2783, looked up)
chain: ANSKITEEVKRSIVKQYLDFKLLMEHLDPDEEEEDGEVSASTNARNKAITSLLGGGSPKNNAAETEDDESDGEDRGGGTSGSLRRSKRNSDSTELASQMNESVDVMDVIAICCPKYKDRPQIARVVQKTSNGFSVQWMAGSYSGSWTEAKRRDGRKLVPWVDTIKESDIIYKKIALTSANKLTNKVVQTLRSLYAAKDGTSS
notes: also called NIPBL C-terminal fragment (C202); not shown: GST, N-terminal, kept
B4: GST–NIPBL^(C202 pip1) (chicken NIPBL residues 2582–2783 with PIP1 mutated, fused to GST) (domain or fragment, UniProt F1NJ66 2582-2783, looked up)
chain: B3 chain with Q16A, L18A, F20A
notes: also called NIPBL^Q2597A,L2599A,F2601A; not shown: GST, N-terminal, kept

Tests used:
Details in all cases: both partners purified
[1] = target: T1, GST–Scc2^C1100 (Scc2 amino acids …); test: pull-down; GST–Scc2 fusions on glutathione Sepharose 4B beads, purified His-tagged yeast Pol30 (2.5 μg) in 0.7 ml binding buffer (1× PBS, 150 mM NaCl, 1% Triton X-100), overnight at 4 °C; western blot with anti-Pol30
[2] = target: T2, N-terminally His-tagged chicken PCNA (chicken, UniProt Q9DEA3 1-262); test: pull-down; GST–NIPBL fusions (chicken) on glutathione Sepharose 4B beads, recombinant N-terminally His-tagged chicken PCNA; blots with anti-PCNA and anti-GST
T2 construct: PCNA, chicken; also called HisPCNA; recombinant chicken PCNA; not shown: His, N-terminal, kept
T2 sequence (Q9DEA3 whole entry, the tested form may be a part): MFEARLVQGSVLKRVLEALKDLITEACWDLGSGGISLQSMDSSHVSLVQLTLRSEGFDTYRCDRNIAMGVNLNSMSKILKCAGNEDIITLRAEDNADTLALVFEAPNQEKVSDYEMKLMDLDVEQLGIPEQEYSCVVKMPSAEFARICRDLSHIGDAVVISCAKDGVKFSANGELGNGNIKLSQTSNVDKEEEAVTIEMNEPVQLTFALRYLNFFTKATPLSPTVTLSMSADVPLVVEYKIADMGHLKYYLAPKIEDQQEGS

[3] = target: B1; test: pull-down; GST–Scc2 fusions on glutathione Sepharose 4B beads, purified His-tagged yeast Pol30 (2.5 μg) in 0.7 ml binding buffer (1× PBS, 150 mM NaCl, 1% Triton X-100), overnight at 4 °C; western blot with anti-Pol30

B1: binds [1].

TNKVVATARSLAAAKDGTSS (domain or fragment, UniProt F1NJ66 2764-2783, looked up, not shown: GST, N-terminal, kept) [GST–NIPBL-pip2 (chicken NIPBL amino acids 2764–2783, Q2769A,L2771A,Y2775A, fused to GST)]: binds [2].

B2: binds [3].

TNKVVQTLRSLYAAKDGTSS (domain or fragment, UniProt F1NJ66 2764-2783, looked up, not shown: GST, N-terminal, kept) [GST–NIPBL-PIP2 (chicken NIPBL amino acids 2764–2783 fused to GST)]: binds [2].

B3: binds [2].

B4: binds [2].
